In patent publication US20110165066A1 (AbbVie / Abbott, published 2011):
Like-named read-outs stand apart in the source and are kept apart here.

T1: mouse IL-13 (mouse, UniProt P20109 26-131, limits assumed)
T1 sequence (looked up): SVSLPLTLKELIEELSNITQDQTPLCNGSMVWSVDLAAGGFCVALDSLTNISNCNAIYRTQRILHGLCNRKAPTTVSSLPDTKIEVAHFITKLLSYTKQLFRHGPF


Experiments:
cynomolgus IL-13 [1] = target: T2, cynomolgus IL-13 (cynomolgus, UniProt Q0PW92 21-132); experiment: cell-based or functional assay
rhesus IL-13 [2] = target: T3, rhesus IL-13 (rhesus, UniProt Q864V6 21-132, limits assumed); experiment: cell-based or functional assay
T3 sequence (Q864V6 21-132 limits assumed): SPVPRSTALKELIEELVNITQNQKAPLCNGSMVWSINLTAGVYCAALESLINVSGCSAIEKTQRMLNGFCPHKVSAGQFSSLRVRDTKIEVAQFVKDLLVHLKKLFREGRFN

human IL-13 wild type [3] = target: T4, human IL-13 wild type (human, UniProt P35225 35-146); experiment: cell-based or functional assay
T4 sequence (P35225 other isoform, or with tags, fused parts or gaps limits assumed): as the sequence (Q864V6 21-132 limits assumed) above, with S1G, R5P, K10R, V42M, N67S, R83H, V100L counted along it

cynomolgus IL-13 [4] = target: T2, cynomolgus IL-13; experiment: SPR (Biacore)
Description: (§1) The BIACORE assay (Biacore, Inc, Piscataway, N.J.) determines the affinity of antibodies with kinetic measurements of on-, off-rate constants. […] All chemicals were obtained from Biacore® AB (Uppsala, Sweden) or otherwise from a different source as described in the text. Approximately 5000 RU of goat anti-mouse IgG, (Fcγ), fragment specific polyclonal antibody (Pierce Biotechnology Inc, Rockford, Ill.) diluted in 10 mM sodium acetate (pH 4.5) was directly immobilized across a CM5 research grade biosensor chip using a standard amine coupling kit according to manufacturer's instructions and procedures at 25 μg/ml. Unreacted moieties on the biosensor surface were blocked with ethanolamine. Modified carboxymethyl dextran surface in flowcell 2 and 4 was used as a reaction surface. Unmodified carboxymethyl dextran without goat anti-mouse IgG in flow cell 1 and 3 was used as the reference surface. For kinetic analysis, rate equations derived from the 1:1 Langmuir binding model were fitted simultaneously to association and dissociation phases of all eight injections (using global fit analysis) with the use of Biaevaluation 4.0.1 software. Purified antibodies were diluted in HEPES-buffered saline for capture across goat anti-mouse IgG specific reaction surfaces. Mouse antibodies to be captured as a ligand (25 μg/ml) were injected over reaction matrices at a flow rate of 5 μl/min. The association and dissociation rate constants, kₒₙ (unit M⁻¹s⁻¹) and koff (unit s⁻¹) were determined under a continuous flow rate of 25 μl/min Rate constants were derived by making kinetic binding measurements at ten different antigen concentrations ranging from 10-200 nM. […] Binding is recorded as a function of time and kinetic rate constants are calculated.

rhesus IL-13 [5] = target: T3, rhesus IL-13; experiment: SPR (Biacore)
Description: as §1

human IL-13 wild type [6] = target: T4, human IL-13 wild type; experiment: SPR (Biacore)
Description: as §1

human IL-13 wild type [7] = target: T4, human IL-13 wild type; experiment: cell-based or functional assay; remark: listed apart in the source
mouse IL-13 [8] = target: T1, mouse IL-13; experiment: cell-based or functional assay
mouse IL-13 [9] = target: T1, mouse IL-13; experiment: BIACORE against recombinant mouse IL-13
human IL-13 wild type [10] = target: T4, human IL-13 wild type; experiment: cell-based or functional assay; remark: listed apart in the source
[11] = target: human IL-13 variant (R130Q) (human, UniProt P35225 35-146); experiment: cell-based or functional assay
Sequence of human IL-13 variant (R130Q) (P35225 35-146 limits assumed, stated change not applied): as the sequence (Q864V6 21-132 limits assumed) above, with S1G, R5P, K10R, V42M, N67S, R83H, V100L, R110Q counted along it

T2 sequence (Q0PW92 entry or part of it): as the sequence (Q864V6 21-132 limits assumed) above, with R5P, R110Q counted along it

Row | Binder | Potency (IC50), A-549 bioassay (cynomolgus IL-13 [1]) [pM] | Potency (IC50), A-549 bioassay (rhesus IL-13 [2]) [pM] | Potency (IC50), A-549 bioassay (human IL-13 wild type [3]) [pM] | Kd (cynomolgus IL-13 [4]) [pM] | Kd (rhesus IL-13 [5]) [pM] | Kd (human IL-13 wild type [6]) [pM] | Average IC50, IL-13-induced TARC production by A-549 cells (human IL-13 wild type [7]) [pM] | also measured
1 | 13C5.5L2EL3F (antibody, V domains shown, constant regions not restated for this variant) VH: EVTLRESGPGLVKPTQTLTLTCTLYGFSLSTSDMGVDWIRQPPGKGLEWLAHIWWDDVKRYNPALKSRLTISKDTSKNQVVLKLTSVDPVDTATYYCARTVSSGYIYYAMDYWGQGTLVTVSS VL: DIQMTQSPSSLSASVGDRVTISCRASQDIRNYLNWYQQKPGKAPKLLIFYTSMKPRGVPSRFSGSGSGTDYTLTISSLQPEDIATYYCQQGLTPPLTFGGGTKVEIK | 480 | 260 | 120 | 320 | 130 | 250 |  | 
2 | 13C5.5L3F (antibody, V domains shown, The heavy chain row is printed 'VH 13C5.5L2F') VH: EVTLRESGPGLVKPTQTLTLTCTLYGFSLSTSDMGVDWIRQPPGKGLEWLAHIWWDDVKRYNPALKSRLTISKDTSKNQVVLKLTSVDPVDTATYYCARTVSSGYIYYAMDYWGQGTLVTVSS VL: DIQMTQSPSSLSASVGDRVTISCRASQDIRNYLNWYQQKPGKAPKLLIFYTSKLHSGVPSRFSGSGSGTDYTLTISSLQPEDIATYYCQQGLTPPLTFGGGTKVEIK | 460 | 140 | 150 | 190 | 110 | 240 |  | 
3 | 13C5.5L2E (antibody, V domains shown, constant regions not restated for this variant) VH: EVTLRESGPGLVKPTQTLTLTCTLYGFSLSTSDMGVDWIRQPPGKGLEWLAHIWWDDVKRYNPALKSRLTISKDTSKNQVVLKLTSVDPVDTATYYCARTVSSGYIYYAMDYWGQGTLVTVSS VL: DIQMTQSPSSLSASVGDRVTISCRASQDIRNYLNWYQQKPGKAPKLLIFYTSMKPRGVPSRFSGSGSGTDYTLTISSLQPEDIATYYCQQGNTLPLTFGGGTKVEIK | 1200 | 400 | 180 | 520 | 290 | 120 |  | 
4 | 9C11-Chim (antibody, human IgG1, V domains shown) VH: QVRLQQPGAELVRPGASVKLSCKASGYTFTSSWIHWVNQRPGQGLEWIGMIHPSDSETRLNQKFKDKATLTVDKSSSTAYMQLSSPTSEDSAVYYCASTATDFDYWGQGTTLTVSS VL: DVVLTQTPLSLPVNIGDQASISCRSTQTLLNSDGFTYLDWYLQKPGQSPQLLIYLVSNRFSGVPDRFSGSGSGTDFTLKISRVEAEDLGVYYCFQNNYLPLTFGAGTKLELKR |  |  |  |  |  |  | 123 | 
5 | 48D3 (antibody, V domains shown) VH: EVQLVESGGDLVQPGRSLKLSCAASGFTFSDYYMAWVRQAPTKGLEWVASISNDGISTYYRDSVKGRFTISREKAKSSLYLQMDSLRSEDTATYYCTTWNWEFGFFDYWGQGVMVTVSA VL: DIVLTQSPALAVSLGQRATISCRASQSVTISRYNRMHWYQQRPGQQPKLLIYRSSYLASGIPARFSGSGSGTDFTLTIYPVQADDIATYYCQQNRESPWTFGGGTKLELNR |  |  |  |  |  |  |  | IC50, A-549 bioassay against recombinant mouse IL-13 (mouse IL-13 [8]): 49.1 pM; Kd (mouse IL-13 [9]): 105 pM
6 | 13C5-Chim (antibody, human IgG1, V domains shown, also called chimeric 13C5) VH: QVTLKESGPGILQPSQTLSLTCSFSGFSLSTSDMGVDWIRQPSGKGLEWLAHIWWDDVKRYNPALKSRLTISKDTSSSQVFLMLASVDTADTATYYCARTVSSGYIYYAMDYWGQGTSVTVSS VL: DIQMTQTASSLSASLGDRVTISCRASQDIRNYLNWYQRKPDGTVKLLIFYTSKLHSGVPSRFSGSGSGTDYSLTIRNLEQEDIATYFCQQGNTLPLTFGGGTKLEIKR |  |  |  |  |  | 56.8 | 191 | Potency (IC50), A-549 bioassay (human IL-13 wild type [10]): 107 pM; Potency (IC50), A-549 bioassay [11]: 37 pM; koff (human IL-13 wild type [6]): 9.65e-05 s⁻¹; kon (human IL-13 wild type [6]): 1.7e+06 M⁻¹ s⁻¹
7 | 51D9 (antibody, V domains shown) VH: QIQLVQSGPELKKPGESVKISCKASGYTFTDYAMHWVKQAPGKGLKWMAWINTYTGKPTYADDFKGRFVFSLEASASTATLQISNLKNEDTATYFCARAGRTEGTHYYAMDAWGQGTSVTVSS VL: DIVLTQSPVLAVSLGQRATISCRASQSVSISSSDLMHWYQQRPGHQPKLLIYRTSNLVSGIPARFSGSGSGTDFTLTIDPVQADDIAAYYCQQGRESPWTFGGGTKLELKR |  |  |  |  |  |  |  | IC50, A-549 bioassay against recombinant mouse IL-13 (mouse IL-13 [8]): 343 pM; Kd (mouse IL-13 [9]): 145 pM
8 | 5G1-Chim (antibody, V domains shown, also called chimeric 5G1) VH: QVQLQQSGAELARPGTSVKLSCKASGYTFTTYGVSWVKQRTGQGLEWIGEIYPGNYNTYYNEKFRGKATLTADKSSSTAYMQLSSLTSEDSAVYFCSRWRTSYFSDYGYFDYWGQGTTLTVSS VL: DVVMTQTPLSLPVSLGDQASISCRSSQSLVHSHGNTYLHWYLQKPGQSPKLLIYTVSNRFSGVPDRFSGSGSGTDFTLKISRVEAEDLGVYFCSQSTHVPYTFGGGTKLEIKR |  |  |  |  |  | 41.7 | 41 | Potency (IC50), A-549 bioassay (human IL-13 wild type [10]): 76.9 pM; Potency (IC50), A-549 bioassay [11]: 69.2 pM; koff (human IL-13 wild type [6]): 3.82e-05 s⁻¹; kon (human IL-13 wild type [6]): 915000 M⁻¹ s⁻¹
